This is an account of results in patent US20020160955A1 (published 2002).

In one test the target is T1, human IGFBP-1 (human, UniProt P08833 26-259).
T1 construct: secreted recombinant protein purified from conditioned medium
T1 sequence (looked up): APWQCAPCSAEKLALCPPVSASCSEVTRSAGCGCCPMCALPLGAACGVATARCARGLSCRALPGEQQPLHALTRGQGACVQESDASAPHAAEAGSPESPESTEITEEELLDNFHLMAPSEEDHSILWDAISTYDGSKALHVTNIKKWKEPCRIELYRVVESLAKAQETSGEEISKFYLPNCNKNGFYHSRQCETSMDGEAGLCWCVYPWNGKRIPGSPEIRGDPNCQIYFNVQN
In words: competitive phage ELISA. The protocol: (§1) E. coli cells (XL1-Blue, Stratagene) freshly transformed with phagemid vector were grown overnight in 5 mL 2YT medium (Sambrook et al, supra) in the presence of M13-VCS helper phage (Stratagene). Phage particles were harvested and resuspended in PBS buffer as described in Lowman, H. B., “Phage Display of Peptide Libraries on Protein Scaffolds,” in Cabilly, S. (ed.), Combinatorial Peptide Library Protocols (Humana Press Inc.: Totowa, N.J., 1998), pp. 249-264. Then phage concentrations were normalized to yield a maximal ELISA signal of 0.2-0.4 for each mutant (Lowman, in Cabilly, S. (ed.), supra). Threefold serial dilutions of soluble competitor were prepared on non-absorbent microtiter plates (Nunc, F, 96 wells) with binding buffer (0.5% TWEEN™ 20/PBS) containing phage at the previously-determined concentrations. […] After blocking, the plates containing immobilized target were washed with 0.05% TWEEN™/PBS buffer and subsequently incubated with 80 μl/well of the premixed phage-competitor solutions for 1 hour at room temperature. After washing, bound phage was detected with 80 μl/well of a solution containing a primary rabbit anti-phage polyclonal antibody and a secondary goat anti-rabbit monoclonal antibody-horseradish peroxidase conjugate in 0.5% TWEEN 20™/PBS. o-Phenylenediamine (Sigma) and tetramethylbenzidine (Kirkegaard and Perry) were used as chromogenic substrates, resulting in product detection at 492 and 450 nm, respectively. IC₅₀ values were determined by fitting the binding data to a generic saturation curve (Lowman, in Cabilly, S. (ed.), supra). […] Numbers in Table I represent mean +standard deviation of individually assessed IC₅₀ values.
Background: ELISA stands for enzyme-linked immunosorbent assay.

Test [1] concerns the target T2, recombinant human IGFBP-3 (human, UniProt P17936 28-291).
T2 construct: secreted recombinant protein purified from conditioned medium
In words: competitive phage ELISA: soluble IGFBP-3 against IGFBP-3-coated wells. As to the method: The plates were then blocked with 0.5% TWEEN 20™/PBS (also used as binding buffer) for 2 hours at room temperature (proteinaceous blocking agents like bovine serum albumin were avoided to prevent potential IGF or IGFBP contamination). E. coli cells (XL1-Blue, Stratagene) freshly transformed with phagemid vector were grown overnight in 5 mL 2YT medium (Sambrook et al, supra) in the presence of M13-VCS helper phage (Stratagene). Phage particles were harvested and resuspended in PBS buffer as described in Lowman, H. B., “Phage Display of Peptide Libraries on Protein Scaffolds,” in Cabilly, S. (ed.), Combinatorial Peptide Library Protocols (Humana Press Inc.: Totowa, N.J., 1998), pp. 249-264. Then phage concentrations were normalized to yield a maximal ELISA signal of 0.2-0.4 for each mutant (Lowman, in Cabilly, S. (ed.), supra). Threefold serial dilutions of soluble competitor were prepared on non-absorbent microtiter plates (Nunc, F, 96 wells) with binding buffer (0.5% TWEEN™ 20/PBS) containing phage at the previously-determined concentrations.

In test [2] the target is T2, recombinant human IGFBP-3. In words: competitive phage ELISA. As to the method: as §1

Residue numbers refer to the chain shown, from its start. Numbers in names are those of the source.

T2 sequence (P17936 28-291 limits assumed): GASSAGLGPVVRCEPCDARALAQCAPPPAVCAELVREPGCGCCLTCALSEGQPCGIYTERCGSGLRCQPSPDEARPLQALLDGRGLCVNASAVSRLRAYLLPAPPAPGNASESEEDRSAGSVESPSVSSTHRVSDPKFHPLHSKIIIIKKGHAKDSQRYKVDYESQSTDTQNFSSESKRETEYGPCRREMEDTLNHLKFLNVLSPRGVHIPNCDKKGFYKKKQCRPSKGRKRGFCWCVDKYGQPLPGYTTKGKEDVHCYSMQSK

B1: IGF-I D12A (G1S-A70V background) displayed on phage (ligand, not shown: large carriers)
chain: SPETLCGAELVAALQFVCGDRGFYFNKPTGYGSSSRRAPQTGIVDECCFRSCDLRRLEMYCAPLKPAKSV
notes: monovalent M13 phage display
With B1, the binding result with human IGFBP-1 was “binds”.

B2: IGF-I D45A (G1S-A70V background) displayed on phage (ligand, not shown: large carriers)
chain: B1 chain with A12D, D45A
notes: monovalent M13 phage display
Consider B2, for which the binding result in the test with human IGFBP-1 was “binds”.

B3: IGF-I F49A (G1S-A70V background) displayed on phage (ligand, not shown: large carriers; small tags and cut ends)
chain: B1 chain with A12D, F49A
notes: monovalent M13 phage display; also called IGF-F49A phage
As for B3, in test [1], the binding result was “binds”.

B4: IGF-I S35A (G1S-A70V background) displayed on phage (ligand, not shown: large carriers)
chain: B1 chain with A12D, S35A
notes: monovalent M13 phage display
In the case of B4, the binding result in test [2] is listed as “binds”.

B5: IGF-I T41A (G1S-A70V background) displayed on phage (ligand, not shown: large carriers)
chain: B1 chain with A12D, T41A
notes: monovalent M13 phage display
Regarding B5, in test [2], the binding result was “binds”.
